PMC2064708
Blank lines part the entries; values can stand above or below the substance they belong to.

How the values were obtained:
[1] = target: Shp2 N-terminal SH2-containing domain (UniProt Q06124); experiment: far-Western of β4 IP with GST-Shp2; details: reference: wild-type β4
[2] = target: Shp2 (UniProt Q06124); experiment: co-IP, anti-β4 IP, Shp2 blot; details: reference: wild-type β4; sites Y1257,Y1494

binding against the reference ([1]; sites Y1257,Y1494): weaker
Substance: β4 integrin (from UniProt P16144-2) β4-ΔShp2D (Y1257F, Y1494F)

binding against the reference ([1]; sites Y1440): weaker
Substance: β4 integrin (from UniProt P16144-2) β4-Y1440F

binding against the reference [2]: weaker
Substance: β4 integrin (from UniProt P16144-2) double mutant Y1257F/Y1494F
